Assay results published in patent US20170137818A1, “APTAMER INHIBITING BIOLOGICAL ACTIVITY OF AUTOTAXIN BY BINDING WITH AUTOTAXIN, AND USE THEREOF” (RIBOMIC INC., priority 2014, published 2017).

B1: 20 (nucleic acid)
chain: ACACTCACAGGCGCTGGGGTACGCTCGGAACCGAGGCAATTGGTCAGCGTGCATGGCCGCTAGT
modifications: aptamer; DNA, backbone and methylation of C not given here
B2: 22 (nucleic acid)
chain: ACACTCACAGGCGCTGGCCGGAACCGTGCATATGGTCGCCAGCACATCGTGCATGGCCGCTAGT
modifications: aptamer; DNA, backbone and methylation of C not given here
B3: 23 (nucleic acid)
chain: ACACTCACAGGCGCTGGCACGGACCGGAACCGGGACGCTCGGTCGACCGTGCATGGCCGCTAGT
modifications: aptamer; DNA, backbone and methylation of C not given here
B4: 25 (nucleic acid)
chain: ACACTCACAGGCGCTGGCGACGTCGGAACCGTGTACCATGGTCACGTCGTGCATGGCCGCTAGT
modifications: aptamer; DNA, backbone and methylation of C not given here
B5: 24 (nucleic acid)
chain: ACACTCACAGGCGCTGGCGAGTCGGAACCGAGCCGATTGGTCACTCGCGTGCATGGCCGCTAGT
modifications: aptamer; DNA, backbone and methylation of C not given here
B6: 21 (nucleic acid)
chain: ACACTCACAGGCGCTGGCCACCACTGCACCGGAACCGCGAATGTGGTCGTGCATGGCCGCTAGT
modifications: aptamer; DNA, backbone and methylation of C not given here
B7: 5 (nucleic acid)
chain: GTGGTCTAGCTGTACTCATGGACGGAACCAGAATACTTTTGGTCTCCATTGAGTACGCCACAGTCAACGAGCTA
modifications: aptamer; DNA, backbone and methylation of C not given here
B8: 8 (nucleic acid)
chain: GTGGTCTAGCTGTACTCCGAAAGCCGGAACCGTGCCAATGGTCGCTACTTCAGCTCCCCACAGTCAACGAGCTA
modifications: aptamer; DNA, backbone and methylation of C not given here
B9: 10 (nucleic acid)
chain: GTGGTCTAGCTGTACTCGCCGGAACCGTACTATGGTCGCGTTGTATGACGCTTGTATCCACAGTCAACGAGCTA
modifications: aptamer; DNA, backbone and methylation of C not given here
B10: 9 (nucleic acid)
chain: GTGGTCTAGCTGTACTCAGGCCGGAACCGGTGAAATTGGTCGCCTAATAAGCGAAATCCACAGTCAACGAGCTA
modifications: aptamer; DNA, backbone and methylation of C not given here
B11: 4 (nucleic acid)
chain: GTGGTCTAGCTGTACTCTCCGGAACCAGAGCAATTTGGTCGAGCGCTATCGGATGGTCCACAGTCAACGAGCTA
modifications: aptamer; DNA, backbone and methylation of C not given here
B12: 6 (nucleic acid)
chain: GTGGTCTAGCTGTACTCGGAACCGTACTCAACGGTCAGTACCTTTGCGCCGCAGCAAGCCACAGTCAACGAGCTA
modifications: DNA, backbone and methylation of C not given here

The molecules below were run against T1, autotaxin (Homo sapiens, UniProt Q13822) (assay: Biacore surface plasmon resonance, autotaxin immobilized on CM4 chip, nucleic acid as analyte). Conditions: maximum RU relative to SEQ ID NO: 22.
T1 construct: His; purchased R&D
Format: binding

Row | Molecule | Binding activity by Biacore
1 | B1 | + (not less than that)
2 | B2 | + (not less than that)
3 | B3 | + (not less than that)
4 | B4 | + (not less than that)
5 | B5 | + (not less than that)
6 | B6 | + (not less than that)

What follows are molecules tested against T1, autotaxin (assay: NPP2 inhibitory assay (pNP-TMP substrate)). Conditions: Table 1; autotaxin 0.3 nM, pNP-TMP 1 mM, 37° C. 24 hr; mean of 2-3 measurements ± standard deviation; >1.0 = no inhibitory activity up to 1.0 μM.
Format: biochemical
Source text: Whether an aptamer inhibits the enzyme activity of autotaxin can be evaluated, for example, by the following test. As a substrate of autotaxin, phosphodiester bond-containing synthetic substrate p-nitrophenyl thymidine 5′-monophosphate (pNP-TMP) (SIGMA) is used. A phosphodiester bond is cleaved by hydrolysis, and p-nitrophenol is liberated. The p-nitrophenol develops a yellow color, and the color is detected. For the assay, a 96-well plate (96-Well EIAsurasshuRIA Polystyrene Plates, Costar) was used, and the amount of the reaction mixture was 200 μL. Nucleic acid was prepared in solution A (see below-mentioned Example 1) (100 μL), pNP-TMP (20 μL) adjusted to 10 mM in the reaction mixture A was added, and the mixture was stirred well and heated at 37° C. for 5 min. On the other hand, 6 ng of autotaxin (Recombinant Human, manufactured by R&D) diluted with solution A was prepared (80 μL), and heated at 37° C. for 5 min. After heating, they were mixed to start an enzyme reaction. The final autotaxin concentration in the reaction solution was 0.3 nM, and the final substrate concentration was 1 mM. A plate containing the reaction mixture was heated at 37° C. for 24 hr, placed in a microplate reader SpectraMax190 (manufactured by Molecular Devices) and the absorbance was determined at wavelength 405 nm. The absorbance when nucleic acid is not added as 100% (A0), an enzyme activity rate was determined from the absorbance (A) of each test substance and according to the following formula.
Enzyme activity rate=(A/A0)×100
(§1) The concentration (IC50) of an inhibitor necessary for inhibiting the enzyme activity by 50% was determined.
Whether these nucleic acids show an autotaxin inhibitory activity was evaluated by the following method. As a substrate of autotaxin, phosphodiester bond-containing synthetic substrate p-nitrophenyl thymidine 5′-monophosphate (pNP-TMP) (SIGMA) was selected (hereinafter to be referred to as NPP2 inhibitory assay). A phosphodiester bond is cleaved by hydrolysis, and p-nitrophenol is liberated. The p-nitrophenol develops a yellow color, and the color is detected. For the assay, a 96-well plate (96-Well EIA/RIA Polystyrene Plates, Costar) was used, and the amount of the reaction mixture was 200 μL. As the reaction mixture, solution A was used. Nucleic acids were prepared in solution A (100 μL), pNP-TMP (20 μL) adjusted to 10 mM in the reaction mixture A was added, and the mixture was stirred well and heated at 37° C. for 5 min. On the other hand, 6 ng of autotaxin diluted with solution A was prepared (80 μL), and heated at 37° C. for 5 min. After heating, they were mixed to start enzyme reaction. The final autotaxin concentration in the reaction solution was 0.3 nM, and the final substrate concentration was 1 mM. A plate containing the reaction mixture was heated at 37° C. for 24 hr, placed in a microplate reader SpectraMax190 (manufactured by Molecular Devices) and the absorbance was determined at wavelength 405 nm. The absorbance when nucleic acids are not added as 100% (A0), an […] was determined from the absorbance (A) of each test substance and according to the following formula.
as §1

Row | Molecule | IC50 [nM]
7 | B7 | 11 ± 5
8 | B8 | 10 ± 2
9 | B9 | 21 ± 6
10 | B10 | 36 ± 4
11 | B11 | 16 ± 6
12 | B12 | 20

Same assay, conditions: Table 3; mean of 2-3 measurements ± standard deviation; >1.0 = no inhibitory activity up to 1.0 μM

Row | Molecule | IC50 [nM]
13 | B1 | 37 ± 2
14 | B2 | 30 ± 11
15 | B3 | 75
16 | B4 | 31 ± 5.7
17 | B5 | 32 ± 4.2
18 | B6 | 28 ± 11

These molecules were tested against T1, autotaxin (assay: Biacore surface plasmon resonance, nucleic acid immobilized on SA chip, autotaxin as analyte). Conditions: nucleic acid immobilized about 1500 RU, autotaxin 0.02 μM as analyte; maximum RU relative to SEQ ID NO: 10.
Format: binding
Protocol: Biacore T100 manufactured by GE Healthcare is used for the measurement of binding strength. In one measurement method, an aptamer is first immobilized on a sensorchip. The immobilization amount is set to about 1500 RU. An autotaxin solution as an analyte prepared to 0.020 μM is injected by 20 μL, and binding of the autotaxin to the aptamer is detected.
All nucleic acids shown in SEQ ID NOs: 4-10 were produced by chemical synthesis. The binding activity of these nucleic acids to autotaxin was evaluated by the surface plasmon resonance method. For the measurement, Biacore T100 manufactured by GE Healthcare was used. The SA chips with streptavidin immobilized thereon were used as the sensor chips. Binding thereto was about 1500 RU of 16 nucleotide Poly dT of which biotin was bound to the 5′-terminus. The nucleic acids used as a ligand were added with Poly A (16 nucleotides) to the 3′-terminus, and were immobilized on SA chips by T-A annealing. The nucleic acids (20 μL) were injected at a flow rate of 20 μL/min to immobilize about 1500 RU of the nucleic acids. An autotaxin for analyte was prepared at 0.02 μM, and 20 μL thereof was injected. As a running buffer, solution A (mixed solution of 145 mM sodium chloride, 5.4 mM potassium chloride, 1.8 mM calcium chloride, 0.8 mM magnesium chloride, 20 mM Tris (pH 7.6), 0.05% Tween20) was used.

Row | Molecule | Binding activity by Biacore
19 | B7 | + (not less than that)
20 | B8 | + (not less than that)
21 | B9 | + (not less than that)
22 | B10 | + (not less than that)
23 | B11 | + (not less than that)
24 | B12 | + (not less than that)
